{
  "source": "patent US20170174789A1",
  "about": "(Regeneron, published 2017)",
  "binders": {"B1": {"name": "H1H2340B (antibody, V domains shown)", "VH": "EVQLVESGGGLVQPGGSLRLSCAASGFTFSRYWMSWVRQAPGMGLEWVANIKQDGSEKNYVDSVKGRFTVSRDNAKNSLYLQMNSLRAEDTAVYYCASAIFGVVITSYWGQGTLVTVSS", "VL": "not shown", "notes": "Tested as H1H2340B (human IgG format, H1H prefix); also called HIH2340B"}, "B2": {"name": "H1H2339B (antibody, V domains shown)", "VH": "EVQLVESGGGLVQPGGSLRLSCAASGFTFSSYAMNWVRQAPGKGLEWVSSISGSGGNTYYADSVKGRFTISRDNSKNTLYLQLNSLRAEDTAVYYCAKDHSLSWYRNVFDIWGQGTMVTVSS", "VL": "not shown", "notes": "Tested as H1H2339B (human IgG format, H1H prefix)"}},
  "key": {"[1]": {"target": "T1, hTie2 (Ig3-FN) (human, UniProt Q02763 350-730)", "T1 construct": "also called hTie2 (Ig3, FN)-hFc", "T1 sequence (Q02763 350-730 limits assumed)": "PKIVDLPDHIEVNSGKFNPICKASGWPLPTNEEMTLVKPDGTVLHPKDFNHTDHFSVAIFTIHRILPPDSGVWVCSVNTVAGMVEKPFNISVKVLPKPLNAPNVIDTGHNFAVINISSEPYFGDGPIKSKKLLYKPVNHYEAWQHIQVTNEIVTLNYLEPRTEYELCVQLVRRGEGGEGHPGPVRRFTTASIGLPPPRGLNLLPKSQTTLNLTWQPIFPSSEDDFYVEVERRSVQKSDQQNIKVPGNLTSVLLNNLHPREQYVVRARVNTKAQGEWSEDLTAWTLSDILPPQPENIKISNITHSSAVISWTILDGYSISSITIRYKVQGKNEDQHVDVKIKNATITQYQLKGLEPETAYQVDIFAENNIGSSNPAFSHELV", "assay": "Luminex beads, 25 ug/ml mAb", "method": "(§1) For binding, 25 μl of anti-Tie2 antibody (25 μg/ml) was added to 75 μl of the above created Luminex bead mixture (3×10³ beads per construct) in binding buffer (PBS, 0.05% Tween 20, 1 mg/ml BSA, 0.05% sodium azide) into a 96 well filter plate (Millipore). Incubation was at room temperature (RT) for 90 min or overnight at 4° C. with shaking. The beads were washed 3× with washing buffer (PBS+0.05% Tween 20) resuspended in 100 μl binding buffer containing PE (phycoerythrine)-labeled anti human kappa or PE-labeled anti mouse Fab secondary antibody and incubated at RT for 45 min with shaking. Samples were washed 2× more and binding signal (MFI) for each bead was determined using a Luminex L200 or FLEXMAP3D instrument. Bead linked human Tie2 was used as positive control and bead linked human Tie1 was used to measure family cross-reactivity. In general MFI signals greater than 500 units represent significant binding."}, "[2]": {"target": "T2, hTie2-mFc (human)", "T2 chain": "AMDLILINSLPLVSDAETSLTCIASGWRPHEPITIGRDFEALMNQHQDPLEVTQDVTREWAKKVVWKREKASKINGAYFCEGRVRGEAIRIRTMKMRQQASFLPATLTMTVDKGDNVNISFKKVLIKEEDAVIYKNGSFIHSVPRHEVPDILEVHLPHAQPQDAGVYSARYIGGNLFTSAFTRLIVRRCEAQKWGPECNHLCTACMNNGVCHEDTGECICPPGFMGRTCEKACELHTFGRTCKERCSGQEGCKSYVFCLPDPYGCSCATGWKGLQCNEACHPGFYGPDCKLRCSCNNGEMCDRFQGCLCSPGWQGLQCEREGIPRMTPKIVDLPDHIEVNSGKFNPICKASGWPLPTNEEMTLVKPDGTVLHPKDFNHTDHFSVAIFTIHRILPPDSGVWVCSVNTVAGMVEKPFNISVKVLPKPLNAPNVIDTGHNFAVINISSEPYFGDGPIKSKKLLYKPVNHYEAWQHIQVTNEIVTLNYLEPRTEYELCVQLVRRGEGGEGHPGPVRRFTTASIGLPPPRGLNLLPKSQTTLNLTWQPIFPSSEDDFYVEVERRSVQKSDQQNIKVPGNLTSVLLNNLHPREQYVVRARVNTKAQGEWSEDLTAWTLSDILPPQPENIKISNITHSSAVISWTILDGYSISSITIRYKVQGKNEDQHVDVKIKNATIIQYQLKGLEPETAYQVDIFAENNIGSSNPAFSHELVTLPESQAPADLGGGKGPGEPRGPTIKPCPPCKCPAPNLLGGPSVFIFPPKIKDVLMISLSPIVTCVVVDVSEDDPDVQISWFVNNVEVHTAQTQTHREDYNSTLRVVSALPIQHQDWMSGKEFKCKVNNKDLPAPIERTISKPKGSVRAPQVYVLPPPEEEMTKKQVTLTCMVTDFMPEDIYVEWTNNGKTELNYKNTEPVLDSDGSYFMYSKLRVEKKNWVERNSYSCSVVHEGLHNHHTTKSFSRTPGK", "assay": "Luminex beads, 25 ug/ml mAb", "method": "as §1"}, "[3]": {"target": "T3, hTie2 (FN) (human, UniProt Q02763 445-730)", "T3 construct": "also called hTie2 (FN)-hFc", "T3 sequence (Q02763 445-730 limits assumed)": "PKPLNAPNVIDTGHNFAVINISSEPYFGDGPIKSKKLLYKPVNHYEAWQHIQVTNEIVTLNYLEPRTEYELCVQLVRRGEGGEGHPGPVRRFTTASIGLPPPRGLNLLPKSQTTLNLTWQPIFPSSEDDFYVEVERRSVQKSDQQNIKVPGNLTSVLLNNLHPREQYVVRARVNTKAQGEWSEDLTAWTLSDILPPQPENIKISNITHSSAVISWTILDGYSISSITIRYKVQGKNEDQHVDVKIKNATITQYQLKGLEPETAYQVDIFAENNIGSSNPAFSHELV", "assay": "Luminex beads, 25 ug/ml mAb", "method": "as §1"}, "[4]": {"target": "T4, hTie2-His (human, UniProt Q02763 23-745)", "T4 construct": "also called ecto-Tie2 fused to 6xHis; biotin-Tie2-His", "assay": "SPR Biacore 37C, mAb captured", "method": "(Tables 3-6). Measurements were conducted on a Biacore 2000 or T200 instrument.\nFor antibodies with a mouse constant region (designated H1M or H2M), antibodies were immobilized onto an anti-mouse Fc sensor surface and different concentrations of human, mouse or rat Tie2 constructs (hTie2-His, mTie2-hFc and rTie2-hFc) were injected over the antibody captured surface. For antibodies in the human IgG format (designated H1H or H4H), either an anti-human Fc sensor surface (hTie2-His and hTie2-mFc) or anti-human Fab sensor surface (mTie2-hFc and rTie2-hFc) was employed depending on the Tie-2 construct applied to the antibody captured surface. Amino acid sequences of the constructs used in this Example are as follows: hTie2-His (SEQ ID NO:2); hTie2-hFc (SEQ ID NO:3); hTie2-mFc (SEQ ID NO:4); rTie2-hFc (SEQ ID NO:5); and mTie2-hFc (SEQ ID NO:6).\nKinetic rate constants—association rate (ka) and dissociation rate (kd) were determined by fitting the real time binding sensorgrams to a 1:1 binding model with mass transport limitation using Scrubber 2.0 curve fitting software. The equilibrium dissociation constant (KD) and dissociative half-life (T½) were calculated from the kinetic rate constants as: KD (M)=kd/ka; and T½ (min)=(In2/(60*kd).)."}, "[5]": {"target": "T4, hTie2-His", "assay": "blocking ELISA: antibody premixed with 0.8 nM biotin-hTie2-His, binding to plate-coated Bow-Ang2", "method": "Tie2 is known to interact with angiopoietins (Ang1, Ang2, Ang3 and Ang4). An initial set of experiments was therefore conducted to evaluate the ability of anti-Tie2 antibodies to block Tie2 binding to Ang2. In this first set of experiments, a quantitative blocking immunoassay was utilized. Briefly, solutions of 0.8 nM biotinylated ecto-Tie2 fused to 6×His (SEQ ID NO:2) were premixed with anti-Tie2 antibody ranging from ˜50 nM to 0 nM in serial dilutions. After a 1-hour incubation at room temperature, the amount of Tie2-His bound to plate coated Bow-Ang2 was measured by sandwich ELISA. Bow-Ang2 (SEQ ID NO:13), an Ang2 construct that comprises the Fc domain of hIgG1 flanked by one FD domain of Ang2 at both termini, was coated at 2 μg/ml on a 96 well microtiter plate and blocked with BSA. Plate-bound biotin-Tie2-His was detected using HRP conjugated streptavidin, and developed using BD OptEIA™ (BD Biosciences Pharmingen, San Diego, Calif.). Signals of OD₄₅₀ nm were recorded and data was analyzed using GraphPad Prism to calculate IC₅₀ values. IC₅₀s were defined as the amount of antibody required to reduce 50% of biotin-Tie2-His detectable to plate bound Bow-Ang2 ligand. In Table 9, an antibody is designated an “enhancer” if the addition of the antibody increases the amount of Tie2-His bound to the Bow-Ang2-coated surface relative to the no antibody control."}},
  "data": [
    {"binder": "B1", "values": [
      {"measurement": "MFI", "setting": "[1]", "value": 4600, "unit": "MFI"},
      {"measurement": "MFI", "setting": "[2]", "value": 3010, "unit": "MFI"},
      {"measurement": "MFI", "setting": "[3]", "value": 5150, "unit": "MFI"},
      {"measurement": "Kd", "setting": "[4]", "value": 102, "unit": "nM"},
      {"measurement": "T½", "setting": "[4]", "value": 1, "unit": "min"},
      {"measurement": "koff", "setting": "[4]", "value": 0.00998, "unit": "s⁻¹"},
      {"measurement": "kon", "setting": "[4]", "value": 97500, "unit": "M⁻¹ s⁻¹"},
      {"measurement": "IC50", "setting": "[5]", "value": 1.03, "unit": "nM"}
    ]},
    {"binder": "B2", "values": [
      {"measurement": "MFI", "setting": "[1]", "value": 3840, "unit": "MFI"},
      {"measurement": "MFI", "setting": "[2]", "value": 2910, "unit": "MFI"},
      {"measurement": "MFI", "setting": "[3]", "value": 4530, "unit": "MFI"},
      {"measurement": "Kd", "setting": "[4]", "value": 72, "unit": "nM"},
      {"measurement": "T½", "setting": "[4]", "value": 2, "unit": "min"},
      {"measurement": "koff", "setting": "[4]", "value": 0.00488, "unit": "s⁻¹"},
      {"measurement": "kon", "setting": "[4]", "value": 67800, "unit": "M⁻¹ s⁻¹"},
      {"measurement": "IC50", "setting": "[5]", "value": 0.189, "unit": "nM"}
    ]}
  ]
}
